From article PMC6170153, “Structures reveal opening of the store-operated calcium channel Orai” (eLife, 2018)
Substitutions are numbered along the chain they refer to. Numbers in names are those of the source.

Columns and labels:
[1] = target: the molecule itself; assay: crystal structure; H206A Orai_(cryst), space group I4_(1), 6.7 Å, 24 subunits (four channels) in the asymmetric unit, 24-fold NCS averaging; crystals grown in 36-38% PEG400, 500 mM NaCl, 100 mM Tris-HCl pH 9.0
[2] = target: the molecule itself; assay: crystal structure; K163W Orai_(cryst), space group I4_(1), 6.1 Å, MIRAS, 24-fold NCS averaging; crystals grown in 26-28% PEG 400, 150 mM NaCl, 100 mM HEPES pH 7.5
[3] = target: the molecule itself; assay: crystal structure; WT Orai_(cryst), space group I4_(1), 6.9 Å, MR-SAD, 24-fold NCS averaging; crystals grown in 32-35% PEG 400, 0.1 M potassium phosphate pH 7.5

B1: H206A Orai_(cryst) (natural protein, Drosophila melanogaster, UniProt Q9U6B8 133-341, looked up)
chain: MSQSGEDLHSPTYLSWRKLQLSRAKLKASSKTSALLSGFAMVAMVEVQLDHDTNVPPGMLIAFAICTTLLVAVAMLALMISTCILPNIETVSNLHSISLVHESPHERLHWYIETAWAFSTLLGLILFLLEIAILCWVKFYDLSPPAAWSATVVLIPVMIIFMAFAIHFYRSLVSHKYEVTVSGIRELEMLKEQMEQDHLEHHNNIRNNG
notes: Hexameric channel; The model holds residues 148-327 without 181-191 and 220-239; also called open conformation
stoichiometry N [1]: 6

B2: K163W Orai_(cryst) (natural protein, Drosophila melanogaster, UniProt Q9U6B8 133-341, looked up)
chain: B1 chain with K31W, A74H
notes: Hexameric channel, solved in two crystal forms (I4_(1) and P4_(2)2_(1)2); also called K163W mutant
stoichiometry N [2]: 6

B3: WT Orai_(cryst) (natural protein, Drosophila melanogaster, UniProt Q9U6B8 133-341, looked up)
chain: B1 chain with A74H
notes: Drosophila melanogaster Orai, amino acids 133-341, with C224S and C283T (made to improve stability); wild-type Pro276 and Pro277; 24 subunits in four channels in the asymmetric unit (24-fold NCS), which makes six a channel; The model holds residues 148-327 without 181-191 and 220-239; also called wild-type (WT) Orai_(cryst); unlatched-closed conformation
binding result [3]: binds
